{"source": "paper PMC6527014", "key": {"[1]": {"molecular_target": "SCM on the surface of S. canis strain G361 (Streptococcus canis (endogenous in strain G361))", "assay": "radioligand binding; iodinated protein (chloramine T) incubated with whole bacteria; percentage binding of totally used iodinated protein"}, "[2]": {"molecular_target": "SCM on the surface of S. canis strain G361 (Streptococcus canis (endogenous in strain G361))", "assay": "radioligand binding; inhibition: S. canis G361 with iodinated full-length SCM after pre-incubation with non-iodinated SCM, N-225 or C-226 (5 µg in the text, 1 µM in the legend)"}, "[3]": {"molecular_target": "recombinant SCM (Streptococcus canis M protein), mature wild type (Streptococcus canis (strain G361))", "assay": "SPR"}}}
{"substance": "recombinant SCM (Streptococcus canis M protein), mature wild type (natural protein)", "values": [{"measurement": "percent of the iodinated protein bound", "setting": "[1]", "value": 24.1, "unit": "%"}, {"measurement": "percent of iodinated SCM bound to G361 with the unlabelled competitor", "setting": "[2]", "value": 4.4, "unit": "%"}]}
{"substance": "recombinant SCM (Streptococcus canis M protein), mature wild type", "values": [{"measurement": "Kd", "setting": "[3]; natural protein", "value": 4.12, "unit": "µM"}]}
{"substance": "SCM fragment N-225", "values": [{"measurement": "Kd", "setting": "[3]; domain or fragment", "value": 0.0585, "unit": "µM"}]}
{"substance": "SCM fragment N-225 (domain or fragment)", "values": [{"measurement": "percent of iodinated SCM bound to G361 with the unlabelled competitor", "setting": "[2]", "value": 6.8, "unit": "%"}]}
